Source: patent US20130142788A1 (published 2013)
Like-named read-outs stand apart in the source and are kept apart here.

T1: recombinant mature dimeric myostatin (human and mouse (mature sequences 100% …, UniProt O08689 268-376))
T1 sequence: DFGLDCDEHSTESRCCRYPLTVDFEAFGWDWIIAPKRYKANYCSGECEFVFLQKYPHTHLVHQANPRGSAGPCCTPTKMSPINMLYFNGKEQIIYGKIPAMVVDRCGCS

B1: H2L2-C91S_F100G_Y (antibody, IgG1)
heavy: not shown
light: DIQMTQSPSSLSASVGDRVTITCKASQDINSYLSWFQQKPGKAPKSLIYRANRLVDGVPSKFSGSGSGTDYTLTISSLQPEDFATYYCLQSDEFPLTFGQGTKLEIKRTVAAPSVFIFPPSDEQLKSGTASVVCLLNNFYPREAKVQWKVDNALQSGNSQESVTEQDSKDSTYSLSSTLTLSKADYEKHKVYACEVTHQGLSSPVTKSFNRGEC
notes: wild type IgG1 Fc
B2: H2L2 C91S_G55S F100G_Y (antibody)
heavy: not shown
light: DIQMTQSPSSLSASVGDRVTITCKASQDINSYLSWFQQKPGKAPKSLIYRANRLVDGVPSKFSGSGSGTDYTLTISSLQPEDFATYYCLQSDEFPLTFGQGTKLEIKRTVAAPSVFIFPPSDEQLKSGTASVVCLLNNFYPREAKVQWKVDNALQSGNSQESVTEQDSKDSTYSLSSTLTLSKADYEKHKVYACEVTHQGLSSPVTKSFNRGEC
notes: Fc not disabled
B3: H2L2 C91S_G55S_F100G_Y-Fc disabled (antibody)
heavy: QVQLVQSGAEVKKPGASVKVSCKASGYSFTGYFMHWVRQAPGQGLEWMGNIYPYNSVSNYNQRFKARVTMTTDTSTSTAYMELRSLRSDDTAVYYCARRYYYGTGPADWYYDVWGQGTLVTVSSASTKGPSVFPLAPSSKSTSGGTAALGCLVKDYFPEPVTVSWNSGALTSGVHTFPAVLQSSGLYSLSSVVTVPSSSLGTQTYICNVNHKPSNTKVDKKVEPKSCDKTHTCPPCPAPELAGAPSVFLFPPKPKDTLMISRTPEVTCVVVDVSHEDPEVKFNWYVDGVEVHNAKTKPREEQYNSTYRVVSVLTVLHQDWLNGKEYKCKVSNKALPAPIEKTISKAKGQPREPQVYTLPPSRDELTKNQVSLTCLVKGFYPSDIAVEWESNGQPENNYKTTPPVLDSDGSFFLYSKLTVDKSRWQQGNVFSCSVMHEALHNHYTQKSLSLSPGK
light: DIQMTQSPSSLSASVGDRVTITCKASQDINSYLSWFQQKPGKAPKSLIYRANRLVDGVPSKFSGSGSGTDYTLTISSLQPEDFATYYCLQSDEFPLTFGQGTKLEIKRTVAAPSVFIFPPSDEQLKSGTASVVCLLNNFYPREAKVQWKVDNALQSGNSQESVTEQDSKDSTYSLSSTLTLSKADYEKHKVYACEVTHQGLSSPVTKSFNRGEC
notes: Fc disabled (L235A, G237A, EU); Light chain L2-C91S by the name; not restated for the disabled form
B4: H2L2-C91S (antibody, IgG1, V domains shown)
VH: QVQLVQSGAEVKKPGASVKVSCKASGYSFTGYFMHWVRQAPGQGLEWMGNIYPYNGVSNYNQRFKARVTMTTDTSTSTAYMELRSLRSDDTAVYYCARRYYYGTGPADWYFDVWGQGTLVTVSS
VL: DIQMTQSPSSLSASVGDRVTITCKASQDINSYLSWFQQKPGKAPKSLIYRANRLVDGVPSKFSGSGSGTDYTLTISSLQPEDFATYYCLQSDEFPLTFGQGTKLEIKR
B5: H2L2-C91S_V102N (antibody, V domains shown)
VH: QVQLVQSGAEVKKPGASVKVSCKASGYSFTGYFMHWVRQAPGQGLEWMGNIYPYNGVSNYNQRFKARVTMTTDTSTSTAYMELRSLRSDDTAVYYCARRYYYGTGPADWYFDNWGQGTLVTVSS
VL: DIQMTQSPSSLSASVGDRVTITCKASQDINSYLSWFQQKPGKAPKSLIYRANRLVDGVPSKFSGSGSGTDYTLTISSLQPEDFATYYCLQSDEFPLTFGQGTKLEIKR
B6: H2L2-C91S_V102S (antibody, V domains shown)
VH: QVQLVQSGAEVKKPGASVKVSCKASGYSFTGYFMHWVRQAPGQGLEWMGNIYPYNGVSNYNQRFKARVTMTTDTSTSTAYMELRSLRSDDTAVYYCARRYYYGTGPADWYFDSWGQGTLVTVSS
VL: DIQMTQSPSSLSASVGDRVTITCKASQDINSYLSWFQQKPGKAPKSLIYRANRLVDGVPSKFSGSGSGTDYTLTISSLQPEDFATYYCLQSDEFPLTFGQGTKLEIKR
B7: H2L2-C91S_F100G_Y Fc Disabled (antibody, human IgG1, kappa)
heavy: QVQLVQSGAEVKKPGASVKVSCKASGYSFTGYFMHWVRQAPGQGLEWMGNIYPYNGVSNYNQRFKARVTMTTDTSTSTAYMELRSLRSDDTAVYYCARRYYYGTGPADWYYDVWGQGTLVTVSSASTKGPSVFPLAPSSKSTSGGTAALGCLVKDYFPEPVTVSWNSGALTSGVHTFPAVLQSSGSLSSVVTVPSSSLGTQTYICNVNHKPSNTKVDKKVEPKSCDKTHTCPPCPAPELAGAPSVFLFPPKPKDTLMISRTPEVTCVVVDVSHEDPEVKFNWYVDGVEVHNAKTKPREEQYNSYVVSVLTVLHQDWLNGKEYKCKVSNKALPAPIEKTISKAKGQPREPQVYTLPPSRDELTKNQVSLTCLVKGFYPSDIAVEWESNGQPENNYKTTPPVLDSDGSFFKKLTVDKSRWQQGNVFSCSVMHEALHNHYTQKSLSLSPGK
light: DIQMTQSPSSLSASVGDRVTITCKASQDINSYLSWFQQKPGKAPKSLIYRANRLVDGVPSKFSGSGSGTDYTLTISSLQPEDFATYYCLQSDEFPLTFGQGTKLEIKRTVAAPSVFIFPPSDEQLKSGTASVVCLLNNFYPREAKVQWKVDNALQSGNSQESVTEQDSKDSTYSLSSTLTLSKADYEKHKVYACEVTHQGLSSPVTKSFNRGEC

How the values were obtained:
[1] = biological target: T1, recombinant mature dimeric myostatin; assay: cell-based or functional assay
[2] = biological target: T1, recombinant mature dimeric myostatin; assay: cell-based or functional assay; remark: listed apart in the source
[3] = biological target: T1, recombinant mature dimeric myostatin; assay: cell-based or functional assay; remark: listed apart in the source
[4] = biological target: T1, recombinant mature dimeric myostatin; assay: Kinexa solution phase affinity
Description: Kinexa (Sapidyne Instruments) solution phase affinity was used to determine the overall affinity for a range of anti-myostatin molecules. Myostatin beads were prepared either by adsorption (polymethylmethacrylate beads-PMMA) or amine coupling (NHS-activated sepharose beads). The range of anti-myostatin molecules studied necessitated the generation of beads coated with different concentrations of myostatin. For the solution phase portion of the assay, a fixed concentration of antibody was incubated with a broad range of myostatin concentrations and allowed to reach equilibrium by incubation at r.t. for at least 2 h before analysis proceeded. The myostatin beads were then used to determine the amount of free antibody present in the solution phase samples, by means of the free antibody binding to the myostatin bead matrix then detected using an appropriate secondary antibody (either anti-human or anti-mouse depending on the construct being tested) labelled with a fluorescent dye. The binding curves where fitted using the Kinexa Pro analysis software inherent to the machine. Multiple runs using varying starting concentrations of antibody were then compiled and analysed using the n-curve analysis software to give a more accurate determination of affinity.

[5] = biological target: T1, recombinant mature dimeric myostatin; assay: myostatin competition ELISA, direct capture of myostatin, competitor 10B3
Description: (§1) A 96-well ELISA plate was coated at 4° C. overnight with 2.5 μg/ml polyclonal Antibody to Myostatin (R&D Systems AF788). This plate was then washed 3-times in wash buffer (PBS, 0.1% Tween-20) and blocked for 1 hour at room temperature with block solution (PBS, 0.1% Tween-20+1% bovine serum albumin [BSA]). Then, myostatin was added at 1 μg/ml in block buffer during 1 hour followed by 3-times in wash buffer. Antibodies were then titrated out to a suitable concentration range (approximately 10 to 0.01 μg/ml), added to the plate and incubated for 1 hour at room temperature. The plate was then washed 3-times in wash buffer. An anti-human kappa light chain HRP-conjugated antibody (Sigma A7164, used according to the manufacturer's instructions) was used to detect binding of humanized or chimeric antibodies, such as 10B3 chimera (HcLc) or H0L0. The plate was then washed 3-times in wash buffer and developed with an OPD substrate (according to the manufacturer's instructions) and read at 490 nm on a plate reader.
The protocol set out in 5.7 was used but the plates were initially coated at 4° C. overnight with 0.2 μg/ml of myostatin (recombinant in-house, see 1.1 above). 10B3 (final concentration of 0.3 μg/ml) was added into each well and mixed with antibodies titrated out to a suitable concentration range (approximately 10 to 0.01 μg/ml). An anti-mouse HRP-conjugated antibody (DAKO P0260, used according to the manufacturer's instructions) was used to detect binding of the 10B3 antibody.

[6] = biological target: T1, recombinant mature dimeric myostatin; assay: myostatin competition ELISA, polyclonal Ab capture of myostatin, competitor 10B3
Description: as §1
The protocol set out in 5.7 was used with the addition of 10B3 (final concentration of […]) to each well and mixed with the antibodies titrated out to a suitable concentration range (approximately 10 to 0.01 μg/ml). An anti-mouse HRP-conjugated antibody (DAKO P0260, used according to the manufacturer's instructions) was used to detect binding of the 10B3 antibody.

[7] = biological target: T1, recombinant mature dimeric myostatin; assay: myostatin competition ELISA, biotinylated myostatin on streptavidin, competitor 10B3
Description: The protocol set out in 5.7 was used but the plates were initially coated at 4° C. overnight with 5 μg/ml of streptavidin. Biotinylated myostatin was added at 0.3 μg/ml block buffer during 1 hour followed by 3-times in wash buffer. 10B3 (final concentration of 0.2 μg/ml) was added into each well and mixed with antibodies titrated out to a suitable concentration range (approximately 10 to 0.01 μg/ml). An anti-mouse HRP-conjugated antibody (DAKO P0260, used according to the manufacturer's instructions) was used to detect binding of the 10B3 antibody.

[8] = biological target: T1, recombinant mature dimeric myostatin; assay: ActRIIb neutralisation ELISA: inhibition of 2 nM biotinylated myostatin binding to coated ActRIIb
Description: Recombinant soluble ActRIIb (R&D Systems 339-RBB) was coated in wells of an ELISA plate at 1 μg/ml in carbonate buffer overnight at 4° C. Plates were blocked with PBS containing 0.1% tween 20 and 0.1% BSA and washed following standard ELISA protocols. In parallel, 2 nM biotinylated myostatin (in-house reagent, described above) was pre-incubated with a dilution series of the antibodies of Tables 21 and 22 for 30 minutes at 37° C. The biotinylated myostatin:antibody reactions were then added (50 μl/well) to the ActRIIb coated plate for 1 hour at 37° C. Standard wash procedures were followed prior to addition of 50 μl per well of a 1:200 diluted streptavidin-HRP conjugate (R&D Systems. #890803) followed by a further 37° C. incubation for 1 hour. Plates were again washed and assayed at absorbance 490 nm following substrate (R&D Systems, #DY999) and acid stop solution treatment.

[9] = biological target: T1, recombinant mature dimeric myostatin; assay: ActRIIb receptor binding assay: inhibition of biotinylated myostatin binding to coated ActRIIb
Description: Recombinant soluble ActRIIb (R&D Systems 339-RBB) was coated in wells of an ELISA plate at 1 μg/ml in carbonate buffer overnight at 4° C. Plates were blocked (see Block solution above at 2.3) and washed following standard ELISA protocols. In parallel, 2 nM biotinylated myostatin (in-house, as described in 1.1, biotinylated material) was pre-incubated with an antibody dilution series consisting of 10B3, 10B3C, and a negative control (IgG1 isotype control) for 2 hours at 37° C. The biotinylated myostatin:antibody reactions were then added to the ActRIIb coated plate for 1 hour at 37° C. Standard wash procedures were followed prior to addition of 1:1000 diluted streptavidin-HRP conjugate (Dako P0397) and a further 37° C. incubation for 1 hour. Plates were again washed and assayed at absorbance 490 nm following OPD substrate (Sigma) and acid stop solution treatment. Inhibition curves and IC50 values for the inhibition of myostatin activity are shown in FIG. 5 and Table 8 respectively.

[10] = biological target: T1, recombinant mature dimeric myostatin; assay: cell-based or functional assay; remark: listed apart in the source

Binder | Mean IC50, A204 in vitro activity assay [1] | rank among the five most potent, top (1) to bottom (5) [5] | rank among the five most potent, top (1) to bottom (5) [6] | rank among the five most potent, top (1) to bottom (5) [7] | other results
B1 | 3.64 nM | 2 rank | 4 rank | 2 rank | Mean IC50, A204 in vitro activity assay [2]: 11.1 nM; IC50, myostatin responsive reporter gene neutralisation assay (A204) [3]: 23 nM; Kd [4]: 3.68 nM; IC50 [8]: 1.25 nM
B2 | – | – | – | – | Mean IC50, A204 in vitro activity assay [2]: 4.42 nM; IC50 [9]: 0.786 nM
B3 | – | – | – | – | IC50 [9]: 0.518 nM
B4 | 5.14 nM | – | – | – | Mean IC50, A204 in vitro activity assay [10]: 4.08 nM
B5 | 5.51 nM | 3 rank | 2 rank | 4 rank | –
B6 | 4.22 nM | 4 rank | 3 rank | 1 rank | –
B7 | – | – | – | – | Mean IC50, A204 in vitro activity assay [10]: 1.24 nM
